Source: the supplement of paper PMC10065799, “High-throughput profiling of sequence recognition by tyrosine kinases and SH2 domains using bacterial peptide display” (eLife, 2023)

Columns and labels:
SHP2-C SH2 = assay: SH2 binding enrichment of the phosphorylated peptide, bacterial display (enrichment ratio); higher = better substrate or ligand; peptides without Tyr show the background
c-Src SH2 = assay: as above
Grb2 SH2 = Grb2 SH2 (UniProt P62993); assay: as above
c-Abl (mouse) = assay: phosphorylation enrichment, bacterial display (enrichment ratio); higher = better substrate or ligand; peptides without Tyr show the background
MERTK = MERTK (UniProt Q12866); assay: as above
EPHB2 = EPHB2 (UniProt P29323); assay: as above
c-Src = assay: as above
AncSZ = assay: as above
Fer (mouse) = assay: as above
Fes = Fes (UniProt P07332); assay: as above
Fyn = Fyn (UniProt P06241); assay: as above
EPHB1 = EPHB1 (UniProt P54762); assay: as above
FGFR3 = FGFR3 (UniProt P22607); assay: as above
FGFR1 = FGFR1 (UniProt P11362); assay: as above
Jak2 = Jak2 (UniProt O60674); assay: as above
Hck = Hck (UniProt P08631); assay: as above
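Wherever SH2 binding enrichment of the phosphorylated peptide, bacterial display is given: peptide library displayed on the E. coli surface as eCPX fusions, selected cells deep-sequenced, score is each peptide's frequency after selection divided by its frequency in the input.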
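Wherever phosphorylation enrichment, bacterial display is given: 11-residue human phosphosite peptides and single-mutation variants displayed on the E. coli surface, counted by deep sequencing, each peptide's frequency after selection divided by its frequency in the unselected input library; frequency after pTyr selection over input frequency; kinase dosed for 20-30% of maximal phosphorylation in three min.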

Sequence of FGFR3 (P22607 whole entry, looked up): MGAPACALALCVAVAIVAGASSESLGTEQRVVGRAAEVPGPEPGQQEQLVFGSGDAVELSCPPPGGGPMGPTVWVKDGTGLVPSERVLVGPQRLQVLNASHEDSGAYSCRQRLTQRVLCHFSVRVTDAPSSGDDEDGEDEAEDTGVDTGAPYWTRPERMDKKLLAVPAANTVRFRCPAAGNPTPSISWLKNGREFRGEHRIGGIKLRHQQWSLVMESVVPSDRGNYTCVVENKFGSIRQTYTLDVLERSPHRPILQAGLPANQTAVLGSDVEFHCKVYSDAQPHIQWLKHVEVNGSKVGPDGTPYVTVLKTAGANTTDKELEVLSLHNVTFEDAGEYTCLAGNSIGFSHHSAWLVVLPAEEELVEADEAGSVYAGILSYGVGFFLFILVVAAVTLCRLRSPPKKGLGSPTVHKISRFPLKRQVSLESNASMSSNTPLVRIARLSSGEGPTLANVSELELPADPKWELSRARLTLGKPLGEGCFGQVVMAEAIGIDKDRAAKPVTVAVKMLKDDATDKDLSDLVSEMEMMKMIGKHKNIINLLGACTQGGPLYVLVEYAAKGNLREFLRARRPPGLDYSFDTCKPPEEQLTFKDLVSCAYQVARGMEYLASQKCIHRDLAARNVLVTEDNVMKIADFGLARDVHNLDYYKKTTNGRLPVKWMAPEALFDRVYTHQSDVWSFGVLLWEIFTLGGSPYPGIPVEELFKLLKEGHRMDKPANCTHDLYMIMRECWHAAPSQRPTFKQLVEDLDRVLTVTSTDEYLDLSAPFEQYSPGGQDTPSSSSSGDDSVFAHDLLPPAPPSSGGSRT
Sequence of EPHB1 (P54762 whole entry, looked up): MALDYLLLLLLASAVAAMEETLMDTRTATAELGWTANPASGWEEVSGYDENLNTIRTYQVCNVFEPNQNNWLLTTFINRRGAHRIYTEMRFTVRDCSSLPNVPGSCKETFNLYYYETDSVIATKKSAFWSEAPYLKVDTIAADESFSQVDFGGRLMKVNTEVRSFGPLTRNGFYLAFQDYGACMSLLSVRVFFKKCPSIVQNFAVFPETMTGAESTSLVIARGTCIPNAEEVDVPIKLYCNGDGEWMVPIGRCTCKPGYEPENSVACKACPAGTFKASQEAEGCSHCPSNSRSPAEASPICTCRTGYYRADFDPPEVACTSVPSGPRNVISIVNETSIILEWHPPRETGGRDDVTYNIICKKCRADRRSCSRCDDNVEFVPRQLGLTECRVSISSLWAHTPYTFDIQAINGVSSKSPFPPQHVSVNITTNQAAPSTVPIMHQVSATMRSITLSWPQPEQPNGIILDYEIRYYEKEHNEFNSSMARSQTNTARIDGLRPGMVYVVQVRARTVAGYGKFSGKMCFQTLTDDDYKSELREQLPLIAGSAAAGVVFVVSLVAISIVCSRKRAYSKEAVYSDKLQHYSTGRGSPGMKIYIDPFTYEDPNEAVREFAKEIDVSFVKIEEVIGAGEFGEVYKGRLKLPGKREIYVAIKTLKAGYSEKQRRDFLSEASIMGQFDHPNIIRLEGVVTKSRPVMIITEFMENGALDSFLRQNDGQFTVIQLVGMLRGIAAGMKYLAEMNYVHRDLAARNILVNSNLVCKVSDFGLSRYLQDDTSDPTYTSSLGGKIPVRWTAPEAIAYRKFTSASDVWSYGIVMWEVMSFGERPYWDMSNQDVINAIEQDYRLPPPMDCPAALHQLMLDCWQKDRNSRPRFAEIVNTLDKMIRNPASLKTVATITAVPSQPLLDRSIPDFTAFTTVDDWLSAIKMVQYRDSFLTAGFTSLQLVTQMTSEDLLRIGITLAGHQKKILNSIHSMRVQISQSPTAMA
Sequence of EPHB2 (P29323 whole entry, looked up): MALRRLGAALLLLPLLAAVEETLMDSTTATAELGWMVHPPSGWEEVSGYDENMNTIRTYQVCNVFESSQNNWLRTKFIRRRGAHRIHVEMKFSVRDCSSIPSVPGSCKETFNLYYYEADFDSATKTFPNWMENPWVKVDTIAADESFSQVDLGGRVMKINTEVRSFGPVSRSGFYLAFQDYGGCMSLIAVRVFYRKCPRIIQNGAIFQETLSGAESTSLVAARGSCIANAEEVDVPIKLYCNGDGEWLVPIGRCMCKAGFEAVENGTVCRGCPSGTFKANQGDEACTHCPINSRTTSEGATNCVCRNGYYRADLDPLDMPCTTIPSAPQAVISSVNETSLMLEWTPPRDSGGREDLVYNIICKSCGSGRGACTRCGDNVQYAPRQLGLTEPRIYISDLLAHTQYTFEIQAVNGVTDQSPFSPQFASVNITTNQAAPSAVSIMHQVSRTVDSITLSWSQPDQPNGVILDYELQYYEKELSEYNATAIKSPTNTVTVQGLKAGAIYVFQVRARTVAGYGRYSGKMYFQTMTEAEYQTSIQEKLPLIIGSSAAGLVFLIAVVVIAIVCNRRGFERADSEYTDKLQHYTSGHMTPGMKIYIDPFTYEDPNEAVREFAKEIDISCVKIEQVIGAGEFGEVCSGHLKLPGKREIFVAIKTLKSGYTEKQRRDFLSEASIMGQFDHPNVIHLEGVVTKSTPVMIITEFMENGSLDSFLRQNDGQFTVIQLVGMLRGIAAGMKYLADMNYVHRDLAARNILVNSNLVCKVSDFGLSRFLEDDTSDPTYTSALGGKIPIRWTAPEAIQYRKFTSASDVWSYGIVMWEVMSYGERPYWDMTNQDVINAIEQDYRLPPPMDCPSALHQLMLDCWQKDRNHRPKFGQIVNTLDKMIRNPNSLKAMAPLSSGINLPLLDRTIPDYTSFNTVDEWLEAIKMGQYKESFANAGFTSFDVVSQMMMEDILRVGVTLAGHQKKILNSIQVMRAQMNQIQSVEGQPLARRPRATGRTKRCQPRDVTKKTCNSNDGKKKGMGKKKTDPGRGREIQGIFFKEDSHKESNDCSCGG
Sequence of Fyn (P06241 whole entry, looked up): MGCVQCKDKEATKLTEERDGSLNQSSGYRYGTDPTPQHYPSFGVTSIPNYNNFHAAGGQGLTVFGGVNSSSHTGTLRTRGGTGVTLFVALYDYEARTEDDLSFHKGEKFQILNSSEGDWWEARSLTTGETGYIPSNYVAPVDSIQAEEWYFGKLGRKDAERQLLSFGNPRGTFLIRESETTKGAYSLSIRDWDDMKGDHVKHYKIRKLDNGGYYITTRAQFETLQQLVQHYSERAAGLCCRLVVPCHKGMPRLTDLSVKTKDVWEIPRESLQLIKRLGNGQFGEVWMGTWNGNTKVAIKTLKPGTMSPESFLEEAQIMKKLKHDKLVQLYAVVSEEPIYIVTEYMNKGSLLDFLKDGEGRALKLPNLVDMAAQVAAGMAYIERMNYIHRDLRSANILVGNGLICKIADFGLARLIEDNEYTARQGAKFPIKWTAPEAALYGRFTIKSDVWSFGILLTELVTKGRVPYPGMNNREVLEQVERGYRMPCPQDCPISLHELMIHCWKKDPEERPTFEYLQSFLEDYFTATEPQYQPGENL
Sequence of FGFR1 (P11362 whole entry, looked up): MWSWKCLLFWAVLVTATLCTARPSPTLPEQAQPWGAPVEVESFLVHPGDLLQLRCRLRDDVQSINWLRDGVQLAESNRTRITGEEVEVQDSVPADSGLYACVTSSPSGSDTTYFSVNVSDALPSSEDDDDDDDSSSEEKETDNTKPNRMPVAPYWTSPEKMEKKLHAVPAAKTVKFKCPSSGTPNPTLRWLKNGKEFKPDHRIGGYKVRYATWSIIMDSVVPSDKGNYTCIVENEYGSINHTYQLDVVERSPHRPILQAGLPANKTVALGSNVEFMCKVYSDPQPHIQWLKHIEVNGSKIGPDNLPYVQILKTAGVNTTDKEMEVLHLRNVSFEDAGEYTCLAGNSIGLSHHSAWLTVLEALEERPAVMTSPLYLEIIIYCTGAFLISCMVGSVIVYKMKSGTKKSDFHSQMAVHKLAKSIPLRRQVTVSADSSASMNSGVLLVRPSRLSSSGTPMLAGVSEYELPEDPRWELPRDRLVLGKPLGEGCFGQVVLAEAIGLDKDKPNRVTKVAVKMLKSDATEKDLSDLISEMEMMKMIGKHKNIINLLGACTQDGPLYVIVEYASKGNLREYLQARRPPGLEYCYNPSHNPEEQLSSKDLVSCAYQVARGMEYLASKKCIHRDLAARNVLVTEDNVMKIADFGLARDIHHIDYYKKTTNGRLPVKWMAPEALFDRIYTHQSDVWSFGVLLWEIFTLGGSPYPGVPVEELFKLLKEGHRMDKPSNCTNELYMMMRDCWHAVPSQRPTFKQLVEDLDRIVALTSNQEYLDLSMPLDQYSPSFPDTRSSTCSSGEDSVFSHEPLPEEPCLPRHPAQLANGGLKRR
Sequence of Grb2 SH2 (P62993 whole entry, looked up): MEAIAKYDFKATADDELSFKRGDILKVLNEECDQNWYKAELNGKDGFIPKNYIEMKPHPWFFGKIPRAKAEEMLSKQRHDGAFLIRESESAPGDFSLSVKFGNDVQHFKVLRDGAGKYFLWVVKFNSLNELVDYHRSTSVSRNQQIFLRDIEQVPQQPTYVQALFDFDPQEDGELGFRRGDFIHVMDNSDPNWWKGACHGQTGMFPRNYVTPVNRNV
Sequence of Hck (P08631 whole entry, looked up, the tested form may be a part): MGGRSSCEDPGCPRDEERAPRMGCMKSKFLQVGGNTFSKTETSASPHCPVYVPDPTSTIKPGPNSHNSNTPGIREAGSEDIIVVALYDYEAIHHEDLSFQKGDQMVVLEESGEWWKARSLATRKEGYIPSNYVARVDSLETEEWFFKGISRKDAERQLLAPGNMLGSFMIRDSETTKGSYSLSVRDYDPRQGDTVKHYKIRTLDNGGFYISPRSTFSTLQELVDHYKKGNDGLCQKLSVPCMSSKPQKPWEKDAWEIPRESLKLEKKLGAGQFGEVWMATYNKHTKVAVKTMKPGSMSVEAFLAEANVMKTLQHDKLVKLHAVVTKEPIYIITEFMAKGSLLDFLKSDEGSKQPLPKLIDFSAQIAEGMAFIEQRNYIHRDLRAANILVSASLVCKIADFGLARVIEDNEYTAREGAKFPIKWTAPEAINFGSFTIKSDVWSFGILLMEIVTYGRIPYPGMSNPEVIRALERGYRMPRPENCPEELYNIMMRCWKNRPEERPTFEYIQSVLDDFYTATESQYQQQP

| Sequence | SH2 binding enrichment (SHP2-C SH2) | SH2 binding enrichment (c-Src SH2) | SH2 binding enrichment (Grb2 SH2) | phosphorylation enrichment (c-Abl (mouse)) | phosphorylation enrichment (MERTK) | phosphorylation enrichment (EPHB2) | phosphorylation enrichment (c-Src) | phosphorylation enrichment (AncSZ) | phosphorylation enrichment (Fer (mouse)) | phosphorylation enrichment (Fes) | phosphorylation enrichment (Fyn) | phosphorylation enrichment (EPHB1) | phosphorylation enrichment (FGFR3) | phosphorylation enrichment (FGFR1) | phosphorylation enrichment (Jak2) | phosphorylation enrichment (Hck) |
| --- | --- | --- | --- | --- | --- | --- | --- | --- | --- | --- | --- | --- | --- | --- | --- | --- |
| SVTCTYSPALY [TP53_Y126_N131Y] | 0.638 | 0.397 | 0.569 | 0.91 | 0.495 | 0.786 | 1.21 | 1.76 | 0.695 | 1.71 | 1.27 | 0.808 | 0.929 | 0.523 | 1.33 | 0.932 |
| SVTFTYSPALN [TP53_Y126_C124Y_YF] | 0.705 | 0.457 | 0.862 | 0.675 | 0.336 | 0.554 | 0.392 | 1.08 | 0.465 | 1.21 | 0.424 | 0.502 | 0.697 | 0.392 | 0.991 | 0.453 |
| SVTYTYSPALN [TP53_Y126_C124Y] | 0.717 | 0.453 | 0.76 | 1.78 | 2.79 | 0.87 | 0.998 | 1.5 | 0.621 | 1.16 | 0.967 | 0.95 | 1.34 | 1.24 | 0.997 | 1.17 |
| SVVVPYEAPEV [TP53_Y220_P222A] | 0.808 | 1.26 | 0.79 | 0.79 | 0.969 | 0.485 | 0.405 | 1.2 | 0.546 | 1.01 | 0.442 | 0.649 | 0.8 | 0.483 | 0.998 | 0.492 |
| SVVVPYEPREV [TP53_Y220_P223R] | 0.532 | 0.415 | 0.829 | 0.656 | 0.373 | 0.506 | 0.472 | 0.813 | 0.465 | 0.998 | 0.473 | 0.53 | 0.597 | 0.527 | 0.746 | 0.453 |
| SYPREYGSQEG [RBM10_Y48] | 0.76 | 0.546 | 0.852 | 0.586 | 0.409 | 0.487 | 0.413 | 0.756 | 0.414 | 0.826 | 0.424 | 0.515 | 0.519 | 0.47 | 0.673 | 0.477 |
| TAPYNYSYIFK [RAB14_Y8] | 1.79 | 13.7 | 1.4 | 0.717 | 6.78 | 3.26 | 0.772 | 1.03 | 1.59 | 0.735 | 0.354 | 9.69 | 1.21 | 1.74 | 0.561 | 1.14 |
| TDGNGYISFNE [LCP1_Y28] | 1.98 | 36 | 0.922 | 0.624 | 0.412 | 0.485 | 0.603 | 0.923 | 0.489 | 1.13 | 0.454 | 0.476 | 0.752 | 0.546 | 0.824 | 0.458 |
| TENAGYYFRIS | 0.801 | 0.736 | 0.574 | 0.763 | 0.433 | 0.576 | 0.41 | 1.44 | 0.453 | 1.75 | 0.477 | 0.588 | 0.816 | 0.575 | 1.71 | 0.475 |
| TETGRYEILTE | 0.426 | 17.2 | 0.772 | 0.389 | 0.421 | 0.466 | 0.44 | 0.742 | 0.354 | 0.765 | 0.387 | 0.532 | 0.427 | 0.543 | 0.658 | 0.517 |
| TFEPNYGTVKR [RAPGEF6_Y1447_Q1452R_YF] | 0.687 | 0.514 | 0.982 | 0.691 | 0.385 | 1.45 | 2.66 | 0.707 | 0.701 | 0.586 | 3.76 | 0.55 | 0.45 | 0.448 | 0.497 | 2.72 |
| TFGQVYKGPHV [TNIK_Y40_R43P_YF] | 0.531 | 0.413 | 0.69 | 0.537 | 0.381 | 0.454 | 0.433 | 0.59 | 0.466 | 0.751 | 0.493 | 0.403 | 0.426 | 0.47 | 0.608 | 0.448 |
| TFGQVYKGRHV [TNIK_Y40_YF] | 1.24 | 0.752 | 0.893 | 0.555 | 0.34 | 0.367 | 0.437 | 0.524 | 0.33 | 0.545 | 0.39 | 0.401 | 0.368 | 0.347 | 0.598 | 0.406 |
| TGSFTCEAVEL [MTMR14_Y462_Y462C] | 0.676 | 0.576 | 0.888 | 0.77 | 0.419 | 0.659 | 0.483 | 1.19 | 0.619 | 1.24 | 0.65 | 0.661 | 0.811 | 0.529 | 0.892 | 0.573 |
| TKDTFYKQPMV [GBA_Y451_F456V] | 0.689 | 0.403 | 0.781 | 1.03 | 0.407 | 0.585 | 0.395 | 0.726 | 0.38 | 0.914 | 0.358 | 0.421 | 0.512 | 0.355 | 0.729 | 0.348 |
| TKQLTYEEQYL [PIK3C3_Y310_D314Y] | 0.747 | 0.538 | 0.894 | 0.825 | 0.593 | 0.603 | 0.732 | 0.95 | 0.965 | 1.18 | 0.45 | 0.551 | 0.766 | 0.434 | 1.37 | 0.524 |
| TLGPFYPSLLF [CRYAA_Y18_R21L] | 0.524 | 0.366 | 0.588 | 0.667 | 0.452 | 0.541 | 0.455 | 0.865 | 0.544 | 1.03 | 0.535 | 0.687 | 1.09 | 0.646 | 0.776 | 0.51 |
